Data from patent US20140314780A1, “Compositions Using Antibodies Directed to GPNMB and Uses Thereof” (Celldex Therapeutics, Inc., priority 2008, published 2014).
“Also recorded” adds a separate entry of the source.

Experiments:
CG56972 expressing cells [1] = test: Effect of naked mAb on CG56972 expressing cells in vitro; assay type: cell-based; conditions: naked IgG2 mAb
Description: (§1) Fully human monoclonal antibodies (mAb)-IgG2 to CG56972/GPNMB, an antigen predominantly found on the surface of melanoma and brain tumor cells, were generated. […] Thus it was examined whether isotype switching from an IgG2 to an IgG1 might enable the mAb to kill human melanoma cells through ADCC effector functions.

GPNMB [2] = target: T1, GPNMB (Homo sapiens, UniProt Q14956); test: Epitope binning of anti-GPNMB antibodies (competitive binding)
T1 construct: V5His; made in house
T1 sequence (Q14956 23-492): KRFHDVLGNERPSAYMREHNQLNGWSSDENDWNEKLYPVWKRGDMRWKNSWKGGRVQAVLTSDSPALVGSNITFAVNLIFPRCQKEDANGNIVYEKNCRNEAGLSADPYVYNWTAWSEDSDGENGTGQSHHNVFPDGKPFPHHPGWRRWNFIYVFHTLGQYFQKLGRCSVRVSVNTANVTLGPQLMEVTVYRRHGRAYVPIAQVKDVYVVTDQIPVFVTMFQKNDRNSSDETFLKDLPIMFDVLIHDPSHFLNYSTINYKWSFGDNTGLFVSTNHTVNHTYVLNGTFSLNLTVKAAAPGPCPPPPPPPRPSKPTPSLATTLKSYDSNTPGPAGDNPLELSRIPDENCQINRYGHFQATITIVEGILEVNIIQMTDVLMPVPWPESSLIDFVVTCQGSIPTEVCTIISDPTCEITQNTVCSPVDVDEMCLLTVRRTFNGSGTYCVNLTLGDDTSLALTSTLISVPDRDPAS
Description: Certain antibodies, described herein were binned in accordance with the protocol described in U.S. Patent Application Publication No. 20030157730. […] Competitive binding by antibodies from […] supports antibody specificity for similar or adjacent epitopes. Non competitive binding supports antibody specificity for unique epitopes.
Three bins were created to further test the binding of six anti-GPNMB antibodies. Bin 1 included GPNMB antibodies (1.2.1), (1.10.1), and (2.22.1). Bin 2 included GPNMB antibodies (2.3.1) and (1.15.1), and Bin 3 included GPNMB antibody (2.10.1). The results of the binning assays are provided below in Tables 4 and 5.

CG56972 expressing cells [3] = test: Effect of naked mAb on CG56972 expressing cells in vivo; conditions: naked IgG2 mAb
Description: as §1

shed GPNMB [4] = test: Immunoprecipitation of shed GPNMB; assay type: binding, human
GPNMB [5] = test: Immunoblotting for GPNMB on whole-cell lysates of cancer cell lines after drug exposure; assay type: cell-based, human; conditions: whole-cell lysates, 48 hours (FIG. 7)
Description: Cancer cell lines were of human origin and were obtained from the American Type Culture Collection (Manassas, Va.) and from the National Cancer Institute (Bethesda, Md.) and cultured in RPMI-1640 supplemented with 10% FBS (growth media). Sources of reagents were as follows: RAFKi (553013), MEKi (U0126), MEKi (PD98059), MEKi (444939), ERKi (FR180204), p38 MAPKi (SB202190), p38 MAPKi (SB203580), aurora kinase inhibitor (189404), JNK inhibitor (420119), MMPi (GM6001) were from EMD Chemicals (San Diego, Calif.). ERKi (A6355), RAFKi: (GW5074), ammonium chloride (NH4Cl), chloroquine, monensin, cyclohexamide and emetine were from Sigma (Saint Louis, Mo.). HSP90i (geldanamycin) was from AG Scientific (San Diego, Calif.) and imatinib (Gleevec) was purchased from a pharmacy.
Cells were seeded in 6-well tissue culture dishes at a subconfluent density and allowed to attach overnight. For harvesting cell lysates, media was removed, cells were briefly washed with serum-free media and then 1× Tris-glycine SDS sample buffer (Invitrogen, Carlsbad, Calif.) supplemented with 10 mM dithiothreitol (Sigma) was added directly to the wells. Cell lysates were then collected and boiled for 10 minutes. For preparing conditioned media, drug treatments were performed in a minimum volume of growth media (1.5 mL/well). Following 48 hours of incubation, conditioned media was collected, briefly microfuged, mixed with an equal volume of 2× Tris-glycine SDS sample buffer (Invitrogen, Carlsbad, Calif.) supplemented with 20 mM dithiothreitol (Sigma) and boiled for 10 minutes. For cell lysates, samples were quantified and an equal quantity of protein/lane was resolved on 4-20% gradient polyacrylamide gels (Invitrogen) and then transferred to nitrocellulose filters (Invitrogen). The volume of conditioned media loaded/lane was adjusted based on the protein concentration determined in the respective cell lysates. Immunoblotting was performed using standard procedures and the following primary antibodies: MARTI (sc-20032), TYRP2 (sc-25544), TYRP1 (sc-25543), PMEL17 (sc-15010), MAGEA1 (sc-20033), MCSP (sc-20162), MTf (sc-26651), MCAM (sc-18942), pp-ERK (sc-7976) and ERK (sc-94) (preceding antibodies were purchased from Santa Cruz Biotechnologies, Santa Cruz, Calif.), GPNMB (AF2550; R & D Systems, Minneapolis Minn.), actin (A5060; Sigma). Following incubation with the appropriate horseradish peroxidase-conjugated secondary antibodies, enhanced chemiluminescence (GE Healthcare, Chalfont St. Giles, United Kingdom) was used for detection.

shed GPNMB [6] = test: GPNMB shedding: immunoblotting of conditioned media (supernatants); assay type: cell-based, human; conditions: conditioned media of WM2664, UACC62; 48 hours (FIG. 7A, 7B)
Description: Shedding of membrane proteins is a common phenomenon that may affect ADC activity. To investigate potential GPNMB shedding, conditioned media collected from melanoma cell lines was immunoblotted for GPNMB (FIG. 7A). […] Shed GPNMB was also readily detected in conditioned media harvested from several other melanoma and glioblastoma cell lines examined, although a very low level of shed GPNMB was found in conditioned media harvested from A375 melanoma cells, a finding which is consistent with the low basal level of GPNMB expression by these cells.

[7] = tested on: GPNMB surface expression on WM2664 melanoma cells; test: Flow cytometry of GPNMB surface expression, WM2664 cells; assay type: cell-based, human; conditions: for GPNMB surface expression, flow cytometry GeoMean: WM2664, CR011 (anti-GPNMB) primary antibody
Procedure: The following day, cells were treated as indicated in the figures/legends, harvested with versene (Invitrogen), washed with PBS and incubated with primary antibody (10 μg/mL) diluted in staining buffer (PBS pH 7.4, 4% FBS, 0.1% sodium azide) for 30 minutes on ice. […] After incubation with primary antibody, samples were washed with staining buffer and then incubated with secondary antibody (PE-conjugated anti-human antibody; 1:100) for 30 minutes on ice. After incubation, samples were washed with staining buffer and examined on a Becton Dickinson FACSCalibur flow cytometer (BD Immunocytometry Systems, San Jose, Calif.). Data analysis was performed with Becton Dickinson Cell Quest software and the geometric mean fluorescence intensity (GeoMean) was determined for each sample.
For the data shown in Table 37, flow cytometry was performed on intact, non-permeabilized cells using the indicated primary monoclonal antibodies. The CR011 antibody utilized was not MMAE-conjugated, but is the same antibody used to generate CR011-vcMMAE. The results are reported as GeoMeans. For the data shown in the top panel of Table 37, A375 (melanoma) or SF539 (glioblastoma) cells were treated with the indicated concentrations of MEKi (U0126), RAFKi (553013) or ERKi (FR180204) for 12, 24 or 48 hours prior to analysis. For the data shown in the bottom left panel of Table 37, SKMEL2 (melanoma) cells were treated with MEKi (U0126; 10 uM), imatinib (20 uM), p38i (p38 MAPKi SB202190; 50 uM), NH4Cl (ammonium chloride; 20 mM) or CLQ (chloroquine; 20 uM) for 48 hours prior to analysis. For the data shown in the bottom right panel of Table 37, WM2664 (melanoma) cells were treated with MON (monensin) or MMPi (GM6001) for 48 hours prior to analysis.

CR011: fully human monoclonal antibody that specifically binds to GPNMB; VH SEQ ID NO: 20, VL SEQ ID NO: 29
effect on CG56972 expressing cells (CG56972 expressing cells [1]): no effect | epitope bin (GPNMB [2]; Table 4): VIII | binning assay signal (antibody pair matrix) (GPNMB [2]; Table 4, paired with column BB): −19 | binning assay signal (antibody pair matrix) (GPNMB [2]; Table 4, paired with column antibody 1.1): 91 | binning assay signal (antibody pair matrix) (GPNMB [2]; Table 4, paired with column antibody 1.11): 10 | binning assay signal (antibody pair matrix) (GPNMB [2]; Table 4, paired with column antibody 1.12): 15 | binning assay signal (antibody pair matrix) (GPNMB [2]; Table 4, paired with column antibody 1.13): 13 | binning assay signal (antibody pair matrix) (GPNMB [2]; Table 4, paired with column antibody 1.15): 0 | binning assay signal (antibody pair matrix) (GPNMB [2]; Table 4, paired with column antibody 1.2): 79 | binning assay signal (antibody pair matrix) (GPNMB [2]; Table 4, paired with column antibody 1.3): 71 | binning assay signal (antibody pair matrix) (GPNMB [2]; Table 4, paired with column antibody 1.5): 15 | binning assay signal (antibody pair matrix) (GPNMB [2]; Table 4, paired with column antibody 1.7): 21 | binning assay signal (antibody pair matrix) (GPNMB [2]; Table 4, paired with column antibody 1.8): 8 | binning assay signal (antibody pair matrix) (GPNMB [2]; Table 4, paired with column antibody 1.9): 12 | binning assay signal (antibody pair matrix) (GPNMB [2]; Table 4, paired with column xV5): 89 | epitope bin (GPNMB [2]; Table 5, Cut-off = 90): VIII | binning assay signal (antibody pair matrix) (GPNMB [2]; Table 5, paired with column BB): 59 | binning assay signal (antibody pair matrix) (GPNMB [2]; Table 5, paired with column antibody 1.1): 127 | binning assay signal (antibody pair matrix) (GPNMB [2]; Table 5, paired with column antibody 1.11): 19 | binning assay signal (antibody pair matrix) (GPNMB [2]; Table 5, paired with column antibody 1.12): 21 | binning assay signal (antibody pair matrix) (GPNMB [2]; Table 5, paired with column antibody 1.13): 5 | binning assay signal (antibody pair matrix) (GPNMB [2]; Table 5, paired with column antibody 1.15): 0 | binning assay signal (antibody pair matrix) (GPNMB [2]; Table 5, paired with column antibody 1.2): 90 | binning assay signal (antibody pair matrix) (GPNMB [2]; Table 5, paired with column antibody 1.3): 51 | binning assay signal (antibody pair matrix) (GPNMB [2]; Table 5, paired with column antibody 1.5): −9 | binning assay signal (antibody pair matrix) (GPNMB [2]; Table 5, paired with column antibody 1.7): 17 | binning assay signal (antibody pair matrix) (GPNMB [2]; Table 5, paired with column antibody 1.8): 12 | binning assay signal (antibody pair matrix) (GPNMB [2]; Table 5, paired with column antibody 1.9): 19 | binning assay signal (antibody pair matrix) (GPNMB [2]; Table 5, paired with column xV5): 125 | epitope bin (GPNMB [2]; six anti-GPNMB antibodies, three bins): Bin 2 | effect on CG56972 expressing cells (CG56972 expressing cells [3]): no effect | recognition of shed GPNMB (shed GPNMB [4]): recognize shed GPNMB

CC[C@@]1([C@@H]2O[C@@H]([C@H]3O[C@@](O)(CO)[C@H](C)C[C@@H]3C)C[C@@H]2C)CC[C@H]([C@]2(C)CC[C@]3(C[C@H](O)[C@@H](C)[C@@H]([C@@H](C)[C@@H](OC)[C@H](C)C(=O)O)O3)O2)O1 [monensin]
faster migrating ~110 kDa GPNMB species (GPNMB [5]): increased the expression | slowest migrating cell-associated ~130 kDa GPNMB species (GPNMB [5]): decreased or eliminated | GPNMB shedding (shed GPNMB [6]): decreased or eliminated; also recorded: strong inhibition | GPNMB surface expression, flow cytometry GeoMean ([7]; MON 250 nM): 88.9 | GPNMB surface expression, flow cytometry GeoMean ([7]; MON 500 nM): 86.8 | GPNMB surface expression ([7]; melanoma cells (WM2664), 48 hours (Table 37, bottom right)): increased GPNMB surface expression
